Reference: publication PMC9303355 (Diabetes, Obesity & Metabolism, 2022)

Columns and labels:
Assay type in all cases: in vivo, healthy subjects (human)
[1] = Pharmacokinetics of plasma insulin after a single subcutaneous dose; conditions: healthy subjects, single 0.3 IU/kg s.c., PP population, median
[2] = tested on: blood glucose (glucose infusion rate); assay: Automated euglycaemic glucose clamp; conditions: healthy subjects; single 0.3 IU/kg s.c.; PP population; median, N=39/38
Safety assessments = conditions: single 0.3 IU/kg s.c.

Substance: Humulin‐R: US‐approved reference regular recombinant human insulin product (Eli Lilly and Company)
- λz (terminal elimination rate constant of insulin) ([1]; N=40/41): 0.5373 h⁻¹
- t50%‐ins(late) ([1]; N=41): 6.23 h
- t50%‐GIR(early) [2]: 1.33 h
- t50%‐GIR(late) [2]: 7.03 h
- tGIR.max (time to maximum glucose infusion rate) [2]: 4.15 h
- tolerability (Safety assessments; healthy subjects): generally well tolerated
- headache (number of events) (Safety assessments; safety analysis set): eight
- injection‐site reactions (number of AEs) (Safety assessments; safety analysis set): four
- subjects with headache (Safety assessments; safety analysis set): eight
- subjects with injection‐site reactions (Safety assessments; safety analysis set): three
